B1: "Bis(monoacylglycero)phosphate synthase CLN5" (Homo sapiens), O75503 (parent)
chain: MAQEVDTAQGAEMRRGAGAARGRASWCWALALLWLAVVPGWSRVSGIPSRRHWPVPYKRFDFRPKPDPYCQAKYTFCPTGSPIPVMEGDDDIEVFRLQAPVWEFKYGDLLGHLKIMHDAIGFRSTLTGKNYTMEWYELFQLGNCTFPHLRPEMDAPFWCNQGAACFFEGIDDVHWKENGTLVQVATISGNMFNQMAKWVKQDNETGIYYETWNVKASPEKGAETWFDSYDCSKFVLRTFNKLAEFGAEFKNIETNYTRIFLYSGEPTYLGNETSVFGPTGNKTLGLAIKRFYYPFKPHLPTKEFLLSLLQIFDAVIVHKQFYLFYNFEYWFLPMKFPFIKITYEEIPLPIRNKTLSGL
partner: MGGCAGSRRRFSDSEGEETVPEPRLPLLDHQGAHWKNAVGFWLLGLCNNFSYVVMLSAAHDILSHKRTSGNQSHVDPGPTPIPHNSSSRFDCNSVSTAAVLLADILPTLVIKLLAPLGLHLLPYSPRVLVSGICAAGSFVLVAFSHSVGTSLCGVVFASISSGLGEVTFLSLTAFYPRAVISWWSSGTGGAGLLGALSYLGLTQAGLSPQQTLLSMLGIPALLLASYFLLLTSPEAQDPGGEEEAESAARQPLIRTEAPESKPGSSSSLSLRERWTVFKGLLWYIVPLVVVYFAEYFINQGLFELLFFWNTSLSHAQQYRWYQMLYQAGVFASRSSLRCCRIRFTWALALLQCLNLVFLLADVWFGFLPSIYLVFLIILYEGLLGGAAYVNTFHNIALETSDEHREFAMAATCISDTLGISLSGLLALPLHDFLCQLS

Variants of: B1
Details: with cln3_human CLN3, Q13286

| Variant | effect of a mutation on the interaction |
| --- | --- |
| MAQEVDTAQGAEMRRGAGAARGRASWCWALALLWLAVVPGWSRVSGIPSRRHWPVPYKRFDFRPKPDPYCQAKYTFCPTGSPIPVMEGDDDIEVFRLQAPVWEFKYGDLLGHLKIMHDAIGFRSTLTGKNYTMEWYELFQLGNCTFPHLRPEMDAPFWCNQGAACFFEGIDDVHWKENGTLVQVATISGNMFNQMAKWVKQDNETGIYYETWNVKASPEKGAETWFDSYNCSKFVLRTFNKLAEFGAEFKNIETNYTRIFLYSGEPTYLGNETSVFGPTGNKTLGLAIKRFYYPFKPHLPTKEFLLSLLQIFDAVIVHKQFYLFYNFEYWFLPMKFPFIKITYEEIPLPIRNKTLSGL [D230N] | with no effect |
